This is an account of results in patent US20220177552A1 (CELLTRION, published 2022).

Positions count from the first letter of the chain named.

Sequences and labels used below:
B1: Antibody 1 (fully human antibody) (antibody, V domains shown)
VH: QVQLVQSGAEVKKPGSSVKVSCKASGGTFSSYVISWVRQAPGQGLEWVGRIIPIFGTVKYAQKFQGRVTITADKSTSTAYMELSSLRSEDTAVYYCARDLPGDSRDGYNYDAFDIWGQGTLVTVSL
VL: GELELTQPPSVSAAPGQKVTISCSGSSSNIGNNYVSWYQQLPGTAPKLLIYDNNKRPSGIPDRFSGSKSGTSATLGITGLQTGDEADYYCGTWDSSLNAGVFGGGTELTVLG
B2: Antibody 2 (fully human antibody) (antibody, V domains shown)
VH: B1 VH with Q1E, V33A, V48M, T57I, V58A, L121M, L126S
VL: GELVLTQPPSVSAAPGQKVTISCSGSSSNIGNNFVSWYQQLPGTAPKLLIYDNDKRPSGIPDRFSGSKSGTSATLGITGLQTGDEADYYCATWDRSLSVELFGGGTKVTVLG
B3: Antibody 3 (fully human antibody) (antibody, V domains shown)
VH: QVQLQESGPGLVKPSETLSLTCTVSGGSINSRSYYWGWIRQPPGKGLEWIGSIYYSGSTYYNPSLKSRVTISVDTSKNQFSLKLRSVTAADTAVYYCARADREHVWGSYDGPGSPFDYWGQGTLVTVSS
VL: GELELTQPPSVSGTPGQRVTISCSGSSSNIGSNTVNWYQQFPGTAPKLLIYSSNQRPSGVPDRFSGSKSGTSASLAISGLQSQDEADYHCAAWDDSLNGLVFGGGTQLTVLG
B4: Antibody 4 (fully human antibody) (antibody, V domains shown)
VH: B3 VH with H104Y
VL: GELVLTQPPSVSEAPRQRVTISCSGSSSNIGNNAVNWYLQVPGTAPKLLIYGDHQRPSGVPDRFSGSKSGTSASLSISGLQSEDEADYYCAAWDDSLNGVVFGGGTKLTVLG
B5: Antibody 5 (fully human antibody) (antibody, V domains shown)
VH: EVQLVQSGAEVKKPGSSVKVSCKASGGTFSSYAISWVRQAPGQGLEWMGRIIPIFGIAKYAQKFQGRVTITADRSTSTAYMELSSLRSEDTAVYYCVTRSGDYSGSSGLAFDIWGQGTMVTVSS
VL: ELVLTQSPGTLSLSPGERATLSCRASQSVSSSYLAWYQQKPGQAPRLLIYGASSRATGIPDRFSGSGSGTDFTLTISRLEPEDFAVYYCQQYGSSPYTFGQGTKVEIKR

The first test addresses S protein of Korean isolate virus (MERS-CoV/Korea/KNIH/002_05_2015) (MERS-CoV, Korean isolate …). Kind of test: cell-based or functional assay.
Take B1: the “IC50, PRNT, Korean isolate virus, First experiment” value was 0.0004 µg/mL.
Consider B2, for which the “IC50, PRNT, Korean isolate virus, First experiment” value was found to be 0.0009 µg/mL.
On to B3, for which the “IC50, PRNT, Korean isolate virus, Second experiment” value (“IC50, PRNT … Second experiment” below) amounted to 0.0032 µg/mL.
As to B4, the “IC50, PRNT … Second experiment” value worked out at 0.00165 µg/mL.
Consider B5, for which the “IC50, PRNT … Second experiment” value was 0.00025 µg/mL.

In another test the target is S protein of Jordan isolate virus (MERS-HCoV/Jordan/01) (MERS-CoV, Jordan isolate …). Kind of test: cell-based or functional assay.
B1: the “Neutralizing activity against Jordan virus (MERS-HCoV/Jordan/01) IC50” value stood at 0.11 µg/mL.
In the case of B2, the “Neutralizing activity against Jordan virus (MERS-HCoV/Jordan/01) IC50” value came to 0.06 µg/mL.
The same measure, in the same setting: the result for B3 reads 0.11 µg/mL.
Still for that read-out and setting: the result for B4 reads 0.05 µg/mL; that for B5, 0.09 µg/mL.

For the next test, the target named is S protein of Saudi isolate virus (MERS/HCoV/KSA/EMC/2012) (MERS-CoV, Saudi isolate …). Kind of test: cell-based or functional assay.
Regarding B1, the “Neutralizing activity against Saudi virus (MERS-CoV_KSA/EMC/2012) IC50” value was determined as 0.44 µg/mL.
Same read-out and setting: the result for B2 reads 0.09 µg/mL.
In the case of B3, the “Neutralizing activity against Saudi virus (MERS-CoV_KSA/EMC/2012) IC50” value amounted to 0.13 µg/mL.
Same read-out and setting: the result for B4 reads 0.06 µg/mL.
In the case of B5, the “Neutralizing activity against Saudi virus (MERS-CoV_KSA/EMC/2012) IC50” value was 0.06 µg/mL.
